The labels stand for the following.
B1: mouse monoclonal antibody MJ 2-7 (antibody, mouse IgG1, V domains shown)
VH: EVQLQQSGAELVKPGASVKLSCTGSGFNIKDTYIHWVKQRPEQGLEWIGRIDPANDNIKYDPKFQGKATITADTSSNTAYLQLNSLTSEDTAVYYCARSEENWYDFFDYWGQGTTLTVSS
VL: DVLMTQTPLSLPVSLGDQASISCRSSQSIVHSNGNTYLEWYLQKPGQSPKLLIYKVSNRFSGVPDRFSGSGSGTDFTLKISRVEAEDLGVYYCFQGSHIPYTFGGGTKLEIK
B2: cynomolgus monkey IL-13 (NHP IL-13), recombinant (ligand)
chain: SPVPPSTALKELIEELVNITQNQKAPLCNGSMVWSINLTAGVYCAALESLINVSGCSAIEKTQRMLNGFCPHKVSAGQFSSLRVRDTKIEVAQFVKDLLVHLKKLFREGQFN
notes: also called non-human primate IL-13; cynomolgus IL-13
B3: humanized MJ 2-7 V2.11 IgG1 with a mutated CH2 domain (antibody, V domains shown)
VH: EVQLVESGGGLVQPGGSLRLSCAASGFNIKDTYIHWVRQAPGKGLEWIGRIDPANDNIKYDPKFQGRFTISADNAKNSAYLQMNSLRAEDTAVYYCARSEENWYDFFDYWGQGTLVTVSS
VL: DIQMTQSPSSLSASVGDRVTITCRSSQSIVHSNGNTYLEWYQQKPGKAPKLLIYKVSNRFSGVPSRFSGSGSGTDFTLTISSLQPEDFATYYCFQGSHIPYTFGGGTKVEIKR
notes: 'QSΓVΉS' read as QSIVHS; also called huMJ 2-7 V2.11; hMJ2-7 V2-11
B4: humanized MJ 2-7 V2 (hMJ 2-7 VH V2 with hMJ 2-7 VL V2) (antibody, human IgG1, V domains shown)
VH: B3 VH with I48V, G49A, A72R, A79L
VL: B3 VL
B5: soluble human IL-13 receptor alpha2 with a human IgG1 Fc tail (sIL13Rα2-Fc) (Fc fusion, UniProt Q14627 27-343, looked up, not shown: a dimerising Fc or GST)
chain: DTEIKVNPPQDFEIVDPGYLGYLYLQWQPPLSLDHFKECTVEYELKYRNIGSETWKTIITKNLHYKDGFDLNKGIEAKIHTLLPWQCTNGSEVQSSWAETTYWISPQGIPETKVQDMDCVYYNWQYLLCSWKPGIGVLLDTNYNLFYWYEGLDHALQCVDYIKADGQNIGCRFPYLEASDYKDFYICVNGSSENKPIRSSYFTFQLQNIVKPLPPVYLTFTRESSCEIKLKWSIPLGPIPARCFDYEIEIREDDTTLVTATVENETYTLKTTNETRQLCFVVRSKVNIYCSDDGIWSEWSDKQCWEGEDLSKKTLLR
B6: mouse monoclonal antibody C65 (antibody, V domains shown)
VH: QVQLKESGPGLVAPSQSLSITCTVSGFSLTGYGVNWVRQPPGKGLEWLGIIWGDGSTDYNSALKSRLIINKDNSKSQVFLKMNSLQTDDTARYFCARDKTFYYDGFYRGRMDYWGQGTSVTVSS
VL: DVQMIQSPSSLSASLGDIVTMTCQASQGTSINLNWFQQKPGKAPKLLIFGASNLEDGVPSRFSGSRYGTNFTLTISSLEDEDMATYFCLQHSYLPWTFGGGTKLEIK

For assay [1], the target named is B2. The assay can be described thus: cell-based or functional assay.
The target of assay [2] is native human IL-13 (crude preparation from activated human cord blood Th2 cells) (human, UniProt P35225 34-146). The assay can be described thus: cell-based or functional assay.
For assay [3], the target named is B5. The assay can be described thus: not described.
The target in assay [4] is B2. As to the kind of experiment: SPR (BIACORE), Kd = kd / ka. For orientation: Surface plasmon resonance follows binding to a sensor surface in real time, without labels.
Assay [5] addresses B2. The assay can be described thus: SPR (BIACORE), antibody captured on goat anti-human IgG Fc, NHP-IL-13 0.09-600 nM, 1:1 model, 22.5 C.

We go through six molecules from patent publication WO2008073463A2 (dated 2008).

Substitutions are numbered along the chain they refer to.

native human IL-13 (crude preparation from activated human cord blood Th2 cells), sequence (P35225 other isoform, or with tags, fused parts or gaps): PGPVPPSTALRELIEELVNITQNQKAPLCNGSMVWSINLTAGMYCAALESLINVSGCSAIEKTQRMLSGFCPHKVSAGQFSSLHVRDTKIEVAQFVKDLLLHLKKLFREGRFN

In the case of B1, the “IC50, inhibition of CD23 expression (non-human primate IL-13 at 1 ng/ml)” value in assay [1] was about 0.242 nM. Further, in assay [2], the “IC50, STAT6 phosphorylation in HT-29 cells (0.3 ng/ml native human IL-13)” value (“IC50, STAT6 phosphorylation” below) amounted to 0.48 nM; the “IC50, inhibition of STAT6 phosphorylation (native human IL-13 at 1 ng/ml)” value was about 0.293 nM; the “IC50, tenascin C production by BEAS-2B cells (3 ng/ml native human IL-13)” value was about 0.1 nM.
Take B2: in assay [3], the binding result was “binds”.
Consider B3, for which the “IC50, STAT6 phosphorylation” value in assay [2] is 0.52 nM. Besides, the Kd (as a rule, the free concentration of one partner at which half of the binding sites on the other are occupied at equilibrium, for simple one-to-one binding) in assay [4] amounted to 0.043 nM. Moreover, in assay [5], the koff (as a rule, a measure of how fast the partners let go of each other) turned out to be 0.000889 s⁻¹ and the kon – broadly, the rate constant with which the complex forms – was 2.05e+07 M⁻¹ s⁻¹.
Consider B4, for which the “concentration for half-maximal inhibition of native human IL-13 bioactivity, against murine MJ2-7” value in assay [2] was ~110 fold greater than murine MJ2-7.
As for B5, the “IC50, STAT6 phosphorylation” value in assay [2] amounted to 0.33 nM.
Turning to B6, in assay [1], the “monocyte CD23 expression (3 ng/ml NHP IL-13)” value is ~20 fold less active than MJ2-7 and sIL-13Rα2-Fc. Also, in assay [2], the “STAT6 phosphorylation in HT-29 cells (0.3 ng/ml native human IL-13)” value is about 20 fold less active.
